According to patent publication US20150344570A1 (published 2015):
Positions count from the first letter of the chain named.

Legend:
[1] = target: FcγRIIb (human, UniProt P31994 43-217); test: SPR (Biacore), KD
[2] = target: FcγRIIa R (human, UniProt P12318 34-217); test: SPR (Biacore), KD; showed the most enhancement
[3] = target: FcγRIIa H (human, UniProt P12318 34-217); test: SPR (Biacore), KD; showed the most enhancement
[4] = target: FcγRIa (human, UniProt P12314 16-292); test: SPR (Biacore 4000)
[5] = target: FcγRIIIa V (human, UniProt P08637 17-208); test: SPR (Biacore), KD; the variant that showed the most enhancement
[6] = target: FcγRIIIa F (human, UniProt P08637 17-208); test: as above
[7] = target: T1, FcγRIIIa (human, UniProt P08637 17-208); test: SPR (Biacore); KD of GpH7-TA7/GpH7-B78/GpL16-k0 for FcγRIIIa divided by the KD of this antibody (this row is the reference itself)
T1 construct: extracellular domain; Soluble extracellular domain with a C-terminal His tag, expressed in FreeStyle293 cells and used as the analyte in Biacore; also called FcgRIIIa; CD16A; not shown: His tag attached to the C terminus
Protocol: The prepared antibodies were compared for the FcγRIIIa-binding activity using, as an indicator, KD for FcγRIIIa that was determined according to the method described in Reference Example 2.
Analysis of interaction between objective antibody and the FcγR was carried out using Biacore T100 (GE Healthcare). HBS-EP+ (GE Healthcare) was used as the running buffer, and the measurement temperature was set to 25° C. Chips produced by immobilizing the antigen peptide by the amine coupling method to a Series S Sencor Chip CM5 (GE Healthcare), or alternatively, chips produced by allowing preliminarily biotinylated antigen peptides to interact with and immobilize onto a Series S Sensor Chip SA (certified) (GE Healthcare) were used. Antibodies of interest were captured onto an antigen peptide-immobilized chip, and allowed to interact to each FcγR diluted with running buffer. To regenerate and repeatedly use the chip, the antibodies captured on the chip were washed off by reacting 10 mM glycine-HCl, pH 1.5.
Specifically, to calculate association rate constant ka (L/mol/s) and dissociation rate constant kd (1/s), sensorgrams obtained by measurement were processed for global fitting by Biacore Evaluation Software using 1:1 Langmuir binding model and dissociation constant KD (mol/1) was calculated from the resulting values.

FcγRIa, sequence (P12314 16-292): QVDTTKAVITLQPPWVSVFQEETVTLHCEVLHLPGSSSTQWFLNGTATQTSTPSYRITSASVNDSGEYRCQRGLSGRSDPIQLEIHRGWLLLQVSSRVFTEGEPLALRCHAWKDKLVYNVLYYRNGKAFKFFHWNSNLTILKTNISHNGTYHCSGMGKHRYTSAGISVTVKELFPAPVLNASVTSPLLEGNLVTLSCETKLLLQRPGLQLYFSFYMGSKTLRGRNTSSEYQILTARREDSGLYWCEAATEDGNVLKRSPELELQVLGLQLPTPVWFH
FcγRIIIa F, sequence (P08637 17-208): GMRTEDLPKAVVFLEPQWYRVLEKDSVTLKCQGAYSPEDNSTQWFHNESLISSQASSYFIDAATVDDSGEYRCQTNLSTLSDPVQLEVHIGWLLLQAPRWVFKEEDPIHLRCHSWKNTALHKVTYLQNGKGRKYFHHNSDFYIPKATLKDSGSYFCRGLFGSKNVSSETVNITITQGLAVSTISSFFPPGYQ
FcγRIIIa V, sequence (P08637 17-208): as above
T1 sequence (P08637 17-208): as above

B1: H240-Kn120/H240-Hl068/L73-k0 (antibody, human IgG1, kappa)
heavy 1: QDQLVQSGAEVKKPGASVKVSCKASGFNIKDTYIQWVRQAPGQGLEWMGRIDPLRKQTKYREKFEGRVTITADTSTNTAYMELSSLRSEDTAVYYCVRSGREFDYWGQGTLVTVSSASTKGPSVFPLAPSSKSTSGGTAALGCLVKDYFPEPVTVSWNSGALTSGVHTFPAVLQSSGLYSLSSVVTVPSSSLGTQTYICNVNHKPSNTKVDKKVEPKSCDKTHTCPPCPAPEYYWGPMVFLFPPKPKDTLMISRTPEVTCVVVDVSDEDPEVKFNWYVDGVEVHNAKTKPREEQYNATYRVVSVLTVLHQDWLNGKEYKCKVSNKDLPAPIEKTISKAKGQPREPQVCTLPPSRDELTKNQVSLWCLVKGFYPSDIAVEWESNGQPENNYKTTPPVLDSDGSFFLYSKLTVDKSRWQQGNVFSCSVMHEALHNHYTQKSLSLSP
heavy 2: QDQLVQSGAEVKKPGASVKVSCKASGFNIKDTYIQWVRQAPGQGLEWMGRIDPLRKQTKYREKFEGRVTITADTSTNTAYMELSSLRSEDTAVYYCVRSGREFDYWGQGTLVTVSSASTKGPSVFPLAPSSKSTSGGTAALGCLVKDYFPEPVTVSWNSGALTSGVHTFPAVLQSSGLYSLSSVVTVPSSSLGTQTYICNVNHKPSNTKVDKKVEPKSCDKTHTCPPCPAPELLGGPSVFLFPPKPKDTLMISRTPEVTCVVVDVSHEEPEVKFNWYVDGVEVHNAKTKPREEQYNSTYRVVSVLTVLHQDWLNGKEYKCKVSNDALPKPIEETISKAKGQPREPQVYTLPPSRCELTKNQVSLSCAVKGFYPSDIAVEWESNGQPENNYKTTPPVLDSDGSFFLVSKLTVDKSRWQQGNVFSCSVMHEALHNHYTQKSLSLSP
light: DIQMTQSPSSLSASVGDRVTITCRASQDIHKYIAWYQQKPGQAPRLLIQYTSTLQPGVPSRFSGSGSGTDYTFTISSLQPEDIATYYCLQYEQLRTFGGGTKVEIKRTVAAPSVFIFPPSDEQLKSGTASVVCLLNNFYPREAKVQWKVDNALQSGNSQESVTEQDSKDSTYSLSSTLTLSKADYEKHKVYACEVTHQGLSSPVTKSFNRGEC
notes: S239M introduced into H240-Kn067
In the case of B1, the “fold FcgRIIb-binding activity against native IgG1” value [1] is reported as about 50 times.

B2: H240-Kn231/H240-Hl068/L73-k0 (antibody, human IgG1, kappa)
heavy 1: B1 heavy 1 with Y233I, M238I
heavy 2: B1 heavy 2
light: B1 light
With B2 the “fold binding activity against H240-Kn033/H240-Hl033/L73-k0” value (from here on “fold binding activity”) [2] was 83 fold and the “fold binding activity” value [3] was 33 fold.

B3: H240-Kn120/H240-Hl073/L73-k0 (antibody, human IgG1, kappa)
heavy 1: B1 heavy 1
heavy 2: B1 heavy 2 with G235S
light: B1 light
notes: G236S introduced into H240-Hl068; also called H240-Kn120/H240-HI073/L73-k0
Work on B3 yielded a koff [4] of under 5e-05 s⁻¹.

B4: H240-Kn203/H240-Hl210/L73-k0 (antibody, human IgG1, kappa)
heavy 1: B1 heavy 1 with Y233F
heavy 2: B1 heavy 2 with K329A
light: B1 light
notes: 330 A in H240-Hl076
For B4, the “fold binding activity” value [5] was 107 fold.

B5: H240-Kn227/H240-Hl214/L73-k0 (antibody, human IgG1, kappa)
heavy 1: B1 heavy 1 with Y233E, Y234Q, M238I, D269E, D326A
heavy 2: B1 heavy 2 with K329F
light: B1 light
notes: 330 F in H240-Hl076
B5 was tested, and the “fold binding activity” value [6] was 161 fold.

B6: GpH7-TA7/GpH7-B78/GpL16-k0 (antibody, human IgG1, kappa)
heavy 1: QVQLVQSGAEVKKPGASVTVSCKASGYTFTDYEMHWIRQPPGEGLEWIGAIDPKTGDTAYSESFQDRVTLTADKSTSTAYMELSSLTSEDTAVYYCTRFYSYTYWGQGTLVTVSSASTKGPSVFPLAPSSKSTSGGTAALGCLVKDYFPEPVTVSWNSGALTSGVHTFPAVLQSSGLYSLSSVVTVPSSSLGTQTYICNVNHKPSNTKVDKKVEPKSCDKTHTCPPCPAPEYLWGPSVFLFPPKPKDTLMISRTPEVTCVVVDVSHEDPEVKFNWYVDGVEVHNAKTKPREEQYNATYRVVSVLTVLHQDWLNGKEYKCKVSNKALPAPIEKTISKAKGQPREPQVYTLPPSRKELTKNQVSLTCLVKGFYPSDIAVEWESNGQPENNYKTTPPVLDSDGSFFLYSKLTVDKSRWQQGNVFSCSVMHEALHNRYTQKSLSLSP
heavy 2: B6 heavy 1 with Y232L, W234G, S237D, A296S, A328L, I330E, K354D, R433H, K437E
light: DIVMTQSPLSLPVTPGEPASISCQASESLVHSNRNTYLHWYLQKPGQSPQLLIYKVSNRFSGVPDRFSGSGSGTDFTLKISRVEAEDVGVYYCSQNTHVPPTFGQGTKVEIERTVAAPSVFIFPPSDEQLKSGTASVVCLLNNFYPREAKVQWKVDNALQSGNSQESVTEQDSKDSTYSLSSTLTLSKADYEKHKVYACEVTHQGLSSPVTKSFNRGEC
notes: Heterodimerized anti-glypican-3 IgG1 antibody with two different H chains (same variable region GpH7) and a common L chain; also called TA7/B78
Work on B6 yielded a KD ratio [7] of 1.
